Source: patent US20250319216A1, “RADIOPHARMCEUTICAL COMPLEXES TARGETING PROSTATE-SPECIFIC MEMBRANE ANTIGEN AND ITS COMBINATIONS” (Bayer Aktiengesellschaft, priority 2022, published 2025)
Marks after values point to notes of the source that are not given here.

Columns and labels:
[1] = Size exclusion chromatography (SEC-UV) of Pelgifatamab TACs; assay type: physicochemical; details: SEC-UV of TAC after radiolabeling
Protocol: Purity of the TACs were determined by SEC-UV. The method separates higher aggregate, dimer and fragments from the ACC monomer. The separation was done using a Acquity UPLC Protein BEH SEC, 1.7 μm, 200 Å, 4.6×300 mm column operated at 30° C. The mobile phase was 170 mM Ammonium acetate and 300 mM NaCl containing 10% 2-propanol and 0.1 mM DCTA. The flowrate was 0.3 mL/min, and the ACCs were detected at UV 280 nm. The analysis was performed on an Agilent 1200 series HPLC with 35 μL injections.

[2] = Radiochemical purity (RCP) of Pelgifatamab TACs by iTLC; assay type: physicochemical; details: for RCP (radiochemical purity): iTLC after Ac-225 labeling at 2 MBq/mg, macropa at room temperature, DOTA at 60° C., one hour
Protocol: The mixture was incubated for one hour at room temperature for macropa-Pelgifatamab while the two DOTA-Pelgifatamab ACCs were incubated for one hour at 60° C. on a heating block. The RCP of the TACs was measured by instant thin layer chromatography using citrate buffer for elution, three replicates for each sample. […] The measurement of radioactivity was done with a Digital Gamma-Ray Spectrometer (DSPEC-50, Ortec). The activities were measured at least 6 hours after radiolabeling to allow daughter nuclides to be in equilibrium with Ac-225. […] Pelgifatamab-macropa and the PSMA binding antibody J591 conjugated with DOTA were both labeled with actinium-225. Labeling was performed at room temperature. J591-DOTA was also labeled at 60° C. Radiochemical purity was determined by instant thin-layer chromatography (iTLC). Labeled and free actinium-225 were counted in a germanium detector using actinium-225 specific energy lines. Actinium-225-labeling of pelgifatamab was efficient at room temperature as compared with actinium-225-labeling of the murine monoclonal PSMA antibody J591 (225Ac-J591, FIG. 8).

LNCaP cells = details: 5 days
Protocol: (§2) Cells were treated for 5 days and subsequentially cell viability was determined using CellTiterGlo (Promega).

[3] = test system: PSMA-expressing prostate cancer xenograft model MDA PCa 2b; details: 72-504 hours
Protocol: Biodistribution of Ac-225-macropa-Pelgifatamab was investigated in the PSMA-expressing prostate cancer xenograft model MDA PCa 2b. Female RJ: NMRI-Foxn1nu/nu mice were implanted with testosterone pellets subcutaneously and were inoculated with 1×10^6 MDA PCa 2b cells on the right flank. Animals were pre-treated with 200 μg/mouse unspecific IgG2a antibody 24 hours prior to hot dosing. Animals were treated with 300 kBq/kg Ac-225-macropa-Pelgifatamab IV at a total protein dose of 0.75 mg/kg. In a separate in vivo study the xenograft model MDA PCa 2b was treated with 250 kBq/kg Ac-225-DOTA-Pelgifatamab at a protein dose of 0.14 mg/kg. In both studies, animals were sacrificed 72, 168, 336, and 504 hours post treatment and 225Ac in blood, tumor, liver, kidney, spleen and femur was determined.

DU-145 cells = details: PSMA negative DU-145 cells, 5 days
Protocol: as §2

[4] = test system: C4-2 prostate cancer cells xenograft; test: In vivo efficacy study in C4-2 xenograft; design: species or system mice; details: single dose IV 300 kBq/kg, total antibody dose 0.14 mg/kg
Protocol: The compounds Ac-225-macropa-Pelgifatamab, Ac-225-DOTA-Pelgifatamab and isotype-macropa were labeled with 225Ac. Mice xenografted with C4-2 prostate cancer cells were treated with a single dose IV of 300 kBq/kg with a total antibody dose of 0.14 mg/kg. […] Body weight loss was less than 10% for all targeted treatment groups. Effects on the hematopoietic system were determined by WBC counts at the end of the experiment (FIG. 16 (C)).

PC-3 cells = details: PSMA negative PC-3 cells, 5 days
Protocol: as §2

CDKN1A = test: Gene expression by RT-qPCR in 22Rv1 cells; assay type: cell-based; details: 24 or 48 h
C4-2 cells = details: 5 days
Protocol: as §2

XRCC2 = test: Gene expression by RT-qPCR in 22Rv1 cells; assay type: cell-based; details: 24 or 48 h
22Rv1 cells = 22Rv1 cells (printed 22R1), 5 days
Protocol: as §2

22Rv1 tumors = test: In vivo efficacy in 22Rv1 prostate cancer model; design: species or system mice; details: 22Rv1, day 16
Protocol: The in vivo antitumor efficacy of 225Ac-pelgi in combination with darolutamide was evaluated in the androgen-independent prostate cancer model 22Rv1.

[5] = test system: LNCaP prostate cancer model; test: In vivo antitumor efficacy in LNCaP model; design: species or system mice; details: total antibody dose 0.75 mg/kg
Protocol: Antitumor efficacy of 225Ac-pelgifatamab was assessed in the LNCaP prostate cancer model: Male SCID mice (6 weeks, 22 g, Janvier Labs) were implanted s.c. with testosterone pellets (12.5 mg, 4 mm) and 1-3 days later, inoculated s.c. with 5×10^6 LNCaP cells. When the tumors reached an average size of 160 mm^3, mice were randomized (n=10 mice/group), and two days later, treated with vehicle or a single i.v. dose of ^225Ac-pelgifatamab (70, 125, or 250 kBq/kg, total antibody dose 0.75 mg/kg). The study was terminated on day 112 after tumor cell inoculation.

KUCaP-1 tumors = test: In vivo antitumor efficacy in KUCaP-1 model; design: species or system mice
Excerpt: In a KUCaP-1 efficacy study, male scid/scid mice (8 weeks, 22 g, Janvier Labs) were implanted s.c. with 5×5×5 mm KUCaP-1 tumor fragments. When the tumors reached an average size of 220 mm^3, mice were randomized (n=9-10 mice/group), and the next day, treated with vehicle or a single i.v. injection of isotype control (300 kBq/kg, […] mg/kg). In addition, for one treatment group, tumors were allowed to reach a size of 470 mm^3, before treatment with a single dose of 300 kBq/kg ^225Ac-pelgi. The study was terminated on day 72 after tumor cell inoculation.

[6] = test system: PSMA expression in VCaP cells; test: PSMA protein expression by flow cytometry; assay type: cell-based; details: androgen-dependent VCaP cells, 0.08-5 μM darolutamide for 7 days
Protocol: (§1) The effect of darolutamide and 225Ac-pelgifatamab on PSMA mRNA and protein expression in vitro was studied in VCaP and 22Rv1 prostate cancer cells. To assess PSMA protein expression, VCaP and 22Rv1 cells were treated with 0.08-5 μM darolutamide for 7 days and PSMA expression was determined by flow cytometry using the murine PSMA-specific monoclonal antibody (mAb) J591 (prepared in-house). To assess FOLH1 gene expression, 22Rv1 cells were treated with 2 μM darolutamide and/or 0.15 kBq/mL 225Ac-pelgifatamab for 24 or 48 h. RNA was extracted with the RNeasy Plus Mini Kit (Qiagen), transcribed to cDNA using SuperScript IV VILO Master Mix (Invitrogen), and analyzed by qPCR.

[7] = test system: PSMA expression in 22Rv1 cells; test: PSMA protein expression by flow cytometry; assay type: cell-based; details: androgen-independent 22Rv1 cells, 0.08-5 μM darolutamide for 7 days
Protocol: as §1

[8] = test system: PSMA expression in 22Rv1 tumors; test: In vivo PSMA protein expression in 22Rv1 tumors by flow cytometry; design: species or system mice; details: isolated 22Rv1 tumors, darolutamide 100 mg/kg BID p.o. for 18 days
Protocol: In vivo expression of PSMA protein was evaluated in 22Rv1 prostate tumor-bearing male nude (nu/nu) mice treated with vehicle or darolutamide (100 mg/kg, BID, p.o) for 18 days. 22Rv1 tumors were extracted (n=2) and dissociated tumor cells were analyzed by flow cytometry using the J591 antibody.

[9] = 300 kBq/kg IV, 0.75 mg/kg total protein

For Ac-225-DOTA-Pelgifatamab CAR 5.7, the Aggregate [1] was 18.4 Area % (UV), the Dimer [1] was 3.0 Area % (UV) and the Monomer [1] was 78.6 Area % (UV). For the same compound, the “RCP (radiochemical purity)” value [2] was 99.2%.
With Ac-225-macropa-Pelgifatamab the cytotoxicity (LNCaP cells) was “Strong cytotoxicity”, the “radioactivity in the liver compared with 225Ac-DOTA-Pelgifatamab” value [3] was “lower and over time decreasing radioactivity” and the “uptake in the spleen compared with 225Ac-DOTA-Pelgifatamab” value [3] was “less uptake”. The “accumulation in normal organs” value [3, 9] was “generally low and transient”, the “tumor accumulation of 225Ac” value [3, 9] was “strong and persistent tumor accumulation” and the “clearance from the bone compared with 225Ac-DOTA-Pelgifatamab” value ([3]; femur) was “improved clearance”. The Dimer [1] was 0.5 Area % (UV), the Monomer [1] was 99.5 Area % (UV) and the cytotoxicity (DU-145 cells) was “little cytotoxicity”. The “antitumor activity compared with Ac-225-DOTA-Pelgifatamab” value [4] was “higher antitumor activity”, the cytotoxicity (PC-3 cells) was “little cytotoxicity” and the “RNA expression of CDKN1A” value (CDKN1A) was “increased”. For the same compound, the cytotoxicity (C4-2 cells) was “Strong cytotoxicity”, the “expression of XRCC2” value (XRCC2) was “decreased” and the “RCP (radiochemical purity)” value [2] was 99.9%. For the same compound, the radiochemical purity ([2]; iTLC after radiolabeling at room temperature (FIG. 8)) was 100%, the cytotoxicity (22Rv1 cells) was “Strong cytotoxicity” and the T/C (22Rv1 tumors; 75 kBq/kg, single dose, i.v.) was 0.71. The T/C (22Rv1 tumors; 300 kBq/kg, single dose, i.v.) was 0.41 ***, the “T/Cvolume (treatment/control) ratio” value ([5]; 70 kBq/kg single dose i.v.) was 0.00 and the “T/Cvolume (treatment/control) ratio” value ([5]; 125 kBq/kg single dose i.v.) was 0.00. The “T/Cvolume (treatment/control) ratio” value ([5]; 250 kBq/kg single dose i.v.) was 0.00, the T/Cvolume ratio (KUCaP-1 tumors; 75 kBq/kg single dose) was 0.55 and the T/Cvolume ratio (KUCaP-1 tumors; 150 kBq/kg single dose) was 0.44. The T/Cvolume ratio (KUCaP-1 tumors; 300 kBq/kg single dose) was 0.26 and the “effect on large tumors” value (KUCaP-1 tumors; single dose 300 kBq/kg, tumors 470 mm^3 at treatment start) was “induced tumor regression”.
In the case of CC(O)c1cc(C(=O)N[C@@H](C)Cn2ccc(-c3ccc(C#N)c(Cl)c3)n2)[nH]n1 (some centres unmarked) [Darolutamide, darolutamide], the “induction of PSMA expression” value [6] is reported as “more than 10 fold”, the “induction of PSMA expression” value [7] is reported as over 2 fold and the “increase in PSMA expression compared with vehicle” value [8] is reported as 50 fold. The T/C (22Rv1 tumors; 100 mg/kg, BID, p.o.) was 0.78.
With Ac-225-DOTA-Pelgifatamab CAR 12.7 the Aggregate [1] was 30.5 Area % (UV), the Dimer [1] was 4.8 Area % (UV) and the Monomer [1] was 64.7 Area % (UV). The “RCP (radiochemical purity)” value [2] was 99.5%.
